Laboratory results from patent US20160200782A1 (MOERAE MATRIX, published 2016).

T1: Haspin(h) (human, UniProt Q8TF76 471-798, limits assumed)
T1 sequence (looked up): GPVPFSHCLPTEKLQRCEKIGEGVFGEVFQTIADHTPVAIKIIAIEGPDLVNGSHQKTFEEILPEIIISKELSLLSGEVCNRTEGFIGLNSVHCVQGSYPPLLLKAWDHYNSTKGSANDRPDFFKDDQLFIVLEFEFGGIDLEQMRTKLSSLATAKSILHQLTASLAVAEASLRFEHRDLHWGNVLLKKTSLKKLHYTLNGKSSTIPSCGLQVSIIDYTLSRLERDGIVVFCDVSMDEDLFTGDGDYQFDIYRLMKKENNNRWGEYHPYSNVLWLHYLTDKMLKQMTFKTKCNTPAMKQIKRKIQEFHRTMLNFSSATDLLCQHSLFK

T2: ALK4(h) (human, UniProt P36896 150-505, limits assumed)
T2 sequence (looked up): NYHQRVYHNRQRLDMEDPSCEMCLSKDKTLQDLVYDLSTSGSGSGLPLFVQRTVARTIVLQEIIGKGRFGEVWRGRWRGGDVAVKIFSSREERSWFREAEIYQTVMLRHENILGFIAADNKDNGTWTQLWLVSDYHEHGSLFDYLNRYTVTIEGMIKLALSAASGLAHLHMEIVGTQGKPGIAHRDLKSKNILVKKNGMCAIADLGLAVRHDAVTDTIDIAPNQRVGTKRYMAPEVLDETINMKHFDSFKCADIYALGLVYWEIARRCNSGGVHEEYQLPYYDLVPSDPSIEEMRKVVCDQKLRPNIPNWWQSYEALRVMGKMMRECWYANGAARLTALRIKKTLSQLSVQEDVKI

T3: Ret(V804M)(h) (human, UniProt P07949 658-1114, limits assumed)
T3 sequence (looked up): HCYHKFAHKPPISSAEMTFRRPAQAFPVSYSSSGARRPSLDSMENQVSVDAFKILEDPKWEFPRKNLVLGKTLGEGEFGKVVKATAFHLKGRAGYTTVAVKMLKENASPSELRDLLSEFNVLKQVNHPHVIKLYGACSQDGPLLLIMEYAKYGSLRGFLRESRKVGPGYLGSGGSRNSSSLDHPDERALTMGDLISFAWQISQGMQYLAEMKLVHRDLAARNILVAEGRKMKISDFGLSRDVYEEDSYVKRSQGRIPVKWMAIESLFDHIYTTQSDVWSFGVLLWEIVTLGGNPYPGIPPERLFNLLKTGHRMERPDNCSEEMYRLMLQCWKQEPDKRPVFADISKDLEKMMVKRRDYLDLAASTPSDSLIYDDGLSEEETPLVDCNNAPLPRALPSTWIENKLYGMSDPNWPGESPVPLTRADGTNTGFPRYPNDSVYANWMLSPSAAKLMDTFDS

T4: SGK(h) (human, UniProt O00141 60-431)
T4 sequence (looked up): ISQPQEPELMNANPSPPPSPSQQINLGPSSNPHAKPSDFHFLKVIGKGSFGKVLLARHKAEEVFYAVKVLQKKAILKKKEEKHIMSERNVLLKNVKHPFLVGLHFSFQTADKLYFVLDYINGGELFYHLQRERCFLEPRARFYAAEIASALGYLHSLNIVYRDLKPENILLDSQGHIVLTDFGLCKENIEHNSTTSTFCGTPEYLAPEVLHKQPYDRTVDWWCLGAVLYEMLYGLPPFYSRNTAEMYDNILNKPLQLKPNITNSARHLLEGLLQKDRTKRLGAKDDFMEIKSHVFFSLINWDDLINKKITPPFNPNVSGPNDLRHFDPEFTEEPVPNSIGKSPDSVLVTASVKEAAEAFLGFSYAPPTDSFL

T5: eEF-2K(h) (human, UniProt O00418 1-725, limits assumed)
T5 sequence (looked up): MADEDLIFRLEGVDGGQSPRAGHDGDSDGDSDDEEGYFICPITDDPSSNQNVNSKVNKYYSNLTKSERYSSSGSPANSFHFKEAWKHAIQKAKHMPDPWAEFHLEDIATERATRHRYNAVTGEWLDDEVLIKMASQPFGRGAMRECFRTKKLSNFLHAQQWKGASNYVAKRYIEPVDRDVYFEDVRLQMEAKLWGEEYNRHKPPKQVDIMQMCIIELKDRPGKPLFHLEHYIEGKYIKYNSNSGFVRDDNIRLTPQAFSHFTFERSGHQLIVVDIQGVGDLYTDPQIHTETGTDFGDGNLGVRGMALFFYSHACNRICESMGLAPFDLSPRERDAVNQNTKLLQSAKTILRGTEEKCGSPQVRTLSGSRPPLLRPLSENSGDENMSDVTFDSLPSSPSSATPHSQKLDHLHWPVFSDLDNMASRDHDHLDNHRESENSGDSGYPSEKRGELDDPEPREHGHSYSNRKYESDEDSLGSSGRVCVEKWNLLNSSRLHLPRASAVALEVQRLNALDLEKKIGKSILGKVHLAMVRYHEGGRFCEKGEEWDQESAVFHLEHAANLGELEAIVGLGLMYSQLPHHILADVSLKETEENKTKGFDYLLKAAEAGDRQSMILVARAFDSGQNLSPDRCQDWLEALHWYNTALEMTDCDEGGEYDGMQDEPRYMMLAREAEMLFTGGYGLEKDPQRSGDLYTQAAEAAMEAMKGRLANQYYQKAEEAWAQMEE


Key:
Assay in all cases: cell-based or functional assay
Haspin(h) = molecular target: T1, Haspin(h)
ALK4(h) = molecular target: T2, ALK4(h)
MLCK(h) = MLCK(h) (human)
Aurora-B(h) = Aurora-B(h) (human, UniProt Q96GD4 1-344)
Ret(V804M)(h) = molecular target: T3, Ret(V804M)(h)
SGK(h) = molecular target: T4, SGK(h)
ZIPK(h) = ZIPK(h) (human, UniProt O43293 1-454, limits assumed)
Ab1(H396P)(h) = Ab1(H396P)(h) (human, UniProt P00519 27-1130, limits assumed)
eEF-2K(h) = molecular target: T5, eEF-2K(h)
Also: test concentration or dose not given here.

Ab1(H396P)(h), sequence (P00519 27-1130 H396P limits assumed): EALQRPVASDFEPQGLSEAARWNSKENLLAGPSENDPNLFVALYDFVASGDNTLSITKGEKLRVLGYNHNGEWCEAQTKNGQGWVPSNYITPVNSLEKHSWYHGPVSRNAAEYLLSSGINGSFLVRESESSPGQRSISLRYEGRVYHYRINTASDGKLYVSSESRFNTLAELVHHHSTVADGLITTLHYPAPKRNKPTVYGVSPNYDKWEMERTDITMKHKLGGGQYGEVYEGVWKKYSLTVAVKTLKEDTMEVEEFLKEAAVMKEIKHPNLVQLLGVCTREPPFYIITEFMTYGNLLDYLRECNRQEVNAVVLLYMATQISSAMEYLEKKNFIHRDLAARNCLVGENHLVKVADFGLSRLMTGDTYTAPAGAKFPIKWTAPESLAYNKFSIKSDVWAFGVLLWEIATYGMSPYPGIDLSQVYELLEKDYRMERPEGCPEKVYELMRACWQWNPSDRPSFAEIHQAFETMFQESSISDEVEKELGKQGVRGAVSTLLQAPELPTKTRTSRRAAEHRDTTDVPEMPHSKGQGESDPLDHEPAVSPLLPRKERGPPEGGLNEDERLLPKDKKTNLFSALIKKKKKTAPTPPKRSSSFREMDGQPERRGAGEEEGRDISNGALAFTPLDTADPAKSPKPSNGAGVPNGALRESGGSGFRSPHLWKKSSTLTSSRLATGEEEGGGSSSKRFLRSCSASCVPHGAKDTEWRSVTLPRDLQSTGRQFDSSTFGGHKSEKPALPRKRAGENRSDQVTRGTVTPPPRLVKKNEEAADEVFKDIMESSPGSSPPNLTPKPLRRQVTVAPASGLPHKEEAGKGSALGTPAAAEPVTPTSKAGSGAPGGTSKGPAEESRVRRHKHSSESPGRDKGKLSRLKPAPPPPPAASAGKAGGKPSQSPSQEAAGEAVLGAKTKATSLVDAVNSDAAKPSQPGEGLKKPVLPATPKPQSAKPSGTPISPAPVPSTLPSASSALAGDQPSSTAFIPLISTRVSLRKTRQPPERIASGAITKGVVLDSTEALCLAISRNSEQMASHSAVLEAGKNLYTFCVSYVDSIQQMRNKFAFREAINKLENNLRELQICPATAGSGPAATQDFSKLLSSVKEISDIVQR
Aurora-B(h), sequence (Q96GD4 whole entry): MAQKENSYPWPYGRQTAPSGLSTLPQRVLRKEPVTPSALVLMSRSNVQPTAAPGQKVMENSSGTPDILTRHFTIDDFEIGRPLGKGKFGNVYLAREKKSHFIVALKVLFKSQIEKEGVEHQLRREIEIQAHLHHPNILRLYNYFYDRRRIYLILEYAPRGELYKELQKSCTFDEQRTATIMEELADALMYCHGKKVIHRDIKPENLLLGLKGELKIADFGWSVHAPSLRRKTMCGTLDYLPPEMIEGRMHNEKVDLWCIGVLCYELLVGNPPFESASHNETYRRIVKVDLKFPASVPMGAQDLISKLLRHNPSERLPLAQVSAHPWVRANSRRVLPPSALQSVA
ZIPK(h), sequence (O43293 whole entry): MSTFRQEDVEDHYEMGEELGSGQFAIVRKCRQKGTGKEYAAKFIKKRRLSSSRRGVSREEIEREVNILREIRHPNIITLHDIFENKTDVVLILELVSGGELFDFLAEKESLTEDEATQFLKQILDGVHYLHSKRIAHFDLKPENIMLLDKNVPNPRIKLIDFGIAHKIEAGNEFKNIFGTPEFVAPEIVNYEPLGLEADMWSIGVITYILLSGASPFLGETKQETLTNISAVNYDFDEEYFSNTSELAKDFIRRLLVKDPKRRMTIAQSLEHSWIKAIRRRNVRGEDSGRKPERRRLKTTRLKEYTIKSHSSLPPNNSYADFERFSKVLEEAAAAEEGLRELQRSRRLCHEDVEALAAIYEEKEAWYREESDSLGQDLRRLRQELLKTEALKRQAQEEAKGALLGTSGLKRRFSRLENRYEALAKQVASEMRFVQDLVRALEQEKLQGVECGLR

| % activity (Haspin(h)) [%] | % activity (ALK4(h)) [%] | % activity (MLCK(h)) [%] | % activity (Aurora-B(h)) [%] | % activity (Ret(V804M)(h)) [%] | % activity (SGK(h)) [%] | % activity (ZIPK(h)) [%] | % activity (Ab1(H396P)(h)) [%] | % activity (eEF-2K(h)) [%] | Binder |
| --- | --- | --- | --- | --- | --- | --- | --- | --- | --- |
| 48 | 140 | 2 | 128 | 95 | 48 | 28 | 101 | 91 | FAKLAARLYRKALARQLGVAA [MMI-0300] |
| 36 | 130 | 1 | 150 | 87 | 54 | 13 | 105 | 43 | KAFAKLAARLYRKALARQLGVAA [MMI-0400] |
